Positions count from the first letter of the chain named. Numbers in names are those of the source. One block for each binder: values may come before it.
Assays:
[1] = target: T1, wild-type murine IL-11Rα on stably transfected Ba/F3 cells (with co-receptor murine gp130) (murine, UniProt Q64385 24-432); test: cell-based or functional assay
T1 sequence (looked up): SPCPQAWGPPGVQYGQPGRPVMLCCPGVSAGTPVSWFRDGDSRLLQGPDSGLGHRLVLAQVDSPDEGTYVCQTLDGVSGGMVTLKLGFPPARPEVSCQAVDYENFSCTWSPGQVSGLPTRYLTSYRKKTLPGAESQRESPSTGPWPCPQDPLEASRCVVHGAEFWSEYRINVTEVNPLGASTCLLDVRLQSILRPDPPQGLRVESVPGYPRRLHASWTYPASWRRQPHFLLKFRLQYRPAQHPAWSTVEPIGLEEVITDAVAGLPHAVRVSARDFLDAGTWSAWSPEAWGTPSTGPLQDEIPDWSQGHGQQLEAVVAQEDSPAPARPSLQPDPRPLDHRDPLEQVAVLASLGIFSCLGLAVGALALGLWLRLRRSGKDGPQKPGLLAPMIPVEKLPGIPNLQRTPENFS

[2] = target: T2, mIL-11Rα-Fc (murine, UniProt Q64385 24-372); test: competition ELISA, soluble protein against phage displayed IL-11 variants on coated mIL-11Rα-Fc
T2 construct: Coated on the ELISA plates; not shown: Fc part of the bought fusion protein
T2 sequence (looked up): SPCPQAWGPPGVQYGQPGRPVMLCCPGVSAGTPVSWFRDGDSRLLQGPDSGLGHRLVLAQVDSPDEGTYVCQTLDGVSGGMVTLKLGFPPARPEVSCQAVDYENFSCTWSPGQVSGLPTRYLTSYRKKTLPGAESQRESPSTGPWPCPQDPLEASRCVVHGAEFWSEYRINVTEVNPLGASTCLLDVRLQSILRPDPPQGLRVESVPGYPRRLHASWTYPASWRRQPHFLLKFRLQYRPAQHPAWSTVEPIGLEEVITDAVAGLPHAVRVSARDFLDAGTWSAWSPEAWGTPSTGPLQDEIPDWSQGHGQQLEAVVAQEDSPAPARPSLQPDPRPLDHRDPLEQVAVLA
Experimental: The affinity of the selected IL-11 mutants for IL-11Rα was determined in a competition ELISA experiment. […] After incubation for 2 hours at room temperature, the plates were washed and bound phage were then labeled with an anti-M13 polyclonal antibody conjugated to horseradish peroxidase. After the removal of excess antibody by washing with PBS containing 0.05% Tween 20, TMB substrate was added to each well and incubated for 10 minutes before the reaction was quenched by the addition of 2M phosphoric acid. Absorbance at 450 nm was then determined for each well by analysis on a microtitre plate reader.
Clear differences were observed between the affinities of the mIL-11-W147A and mutant proteins for binding to IL-11Rα-Fc.

[3] = target: T2, mIL-11Rα-Fc; test: IL-11Rα binding ELISA
[4] = target: T1, wild-type murine IL-11Rα on stably …; test: cell-based or functional assay; remark: listed apart in the source

- IC50 (nM), inhibition of IL-11-induced proliferation of IL-11Rα/gp130 Ba/F3 cells (MTT) [1]: 0.49 nM
- fold higher affinity relative to W147A IL-11 [2]: 20 fold
B1: IL-11 mutant 1B.382 (murine FMQIQ and W147A IL-11 mutein), N-terminal hexahistidine-tagged (ligand)
chain: PGPPAGSPRVSSDPRADLDSAVLLTRSLLADTRQLAAQMRDKFPADGDHSLDSLPTLFMQIQTLGSLQLPGVLTRLRVDLMSYLRHVQWLRRAGGPSLKTLEPELGALQARLERLLRRLQLLMSRLALPQAAPDQPVIPLGPPASAAGSIRAAHAILGGLHLTLDWAVRGLLLLKTRL
notes: Mutein of mature murine IL-11 with FMQIQ at 58-62 and W147A; also called clone 1B.382; not shown: N-terminal hexahistidine tag from the modified pET15b vector

- IC50 (nM), inhibition of IL-11-induced proliferation of IL-11Rα/gp130 Ba/F3 cells (MTT) [1]: 14 nM
B2: mIL-11-W147A, N-terminal hexahistidine-tagged (ligand, not shown: small tags and cut ends)
chain: B1 chain with F58A, Q60S, I61A, Q62G

- IC50 (nM), inhibition of IL-11-induced proliferation of IL-11Rα/gp130 Ba/F3 cells (MTT) [1]: 0.54 nM
- fold higher affinity relative to W147A IL-11 [2]: 20 fold
B3: IL-11 mutant 1.21 (murine PAIDY and W147A IL-11 mutein), N-terminal hexahistidine-tagged (ligand)
chain: B1 chain with F58P, M59A, Q60I, I61D, Q62Y
notes: Mutein of mature murine IL-11 with PAIDY at 58-62 and W147A; not shown: N-terminal hexahistidine tag from the modified pET15b vector

- fold reduction of binding affinity relative to non-PEGylated 1.21 [3]: ~5 fold
- fold reduction of the ability to antagonize IL-11-induced Ba/F3 cell proliferation, relative to non-PEGylated 1.21 [4]: ~10 fold
B4: Δ1.21 (PEGylated and truncated modified form of clone 1.21, W147C, amino acids 10-178 of SEQ ID NO:12) (ligand)
chain: VSSDPRADLDSAVLLTRSLLADTRQLAAQMRDKFPADGDHSLDSLPTLPAIDYTLGSLQLPGVLTRLRVDLMSYLRHVQWLRRAGGPSLKTLEPELGALQARLERLLRRLQLLMSRLALPQAAPDQPVIPLGPPASACGSIRAAHAILGGLHLTLDWAVRGLLLLKTRL
modifications: 40 kDa mPEG2-maleimide on Cys147 (position corresponding to position 147 of SEQ ID NO:12)
notes: His-tag and first nine residues (which carried the optimized thrombin site, residues 6 and 7 to L and V) removed by thrombin; N-terminus Val10-Ser11-Ser12; also called PEGylated mutein; pegylated mouse IL-11 mutein Δ1.21

Reference: patent publication US20110300100A1 (CSL, published 2011)
